Test results from patent publication US20170204167A1.

Columns and labels:
[1] = biological target: HA of H7 pseudovirus (A/chicken/Italy/99) in which the glycosylation site (Asn-38) was removed (influenza A virus H7 A/chicken/Italy/99); test: cell-based or functional assay
[2] = biological target: HA of H5N1 A/Viet Nam/1203/04 (influenza A virus H5N1 A/Viet Nam/1203/04); test: ELISA on recombinant or purified HA
[3] = biological target: HA of H9 A/HK/1073/99 (influenza A virus H9N2 A/Hong Kong/1073/99); test: ELISA on recombinant or purified HA
[4] = biological target: HA of H7N3 A/Canada/444/04 (influenza A virus H7N3 A/Canada/444/04); test: ELISA on recombinant or purified HA
[5] = biological target: HA of H3N2 A/Wyoming/3/03 (influenza A virus H3N2 A/Wyoming/3/03); test: ELISA on recombinant or purified HA
[6] = biological target: HA of H1N1 A/Brisbane/59/07 (influenza A virus H1N1 A/Brisbane/59/07); test: ELISA on recombinant or purified HA
[7] = biological target: HA of H4N6 A/duck/Czechoslovakia/56 (ELISA antigen) (influenza A virus H4N6 A/duck/Czechoslovakia/56) (UniProt P19696); test: ELISA on recombinant or purified HA
[8] = biological target: HA of H13N6 A/gull/Maryland/704/77 (ELISA antigen) (influenza A virus H13N6 A/gull/Maryland/704/77) (UniProt P13103); test: ELISA on recombinant or purified HA
[9] = biological target: HA of H2N2 A/Singapore/1/57 (influenza A virus H2N2 A/Singapore/1/57) (UniProt Q67333); test: ELISA on recombinant or purified HA
[10] = biological target: HA of H8N4 A/Alberta/357/84 (influenza A virus H8N4 A/Alberta/357/84); test: ELISA on recombinant or purified HA
[11] = biological target: HA of H5N1 A/Viet Nam/1/05 (influenza A virus H5N1 A/Viet Nam/1/05); test: ELISA on recombinant or purified HA
[12] = biological target: HA of H3N2 A/New York/55/04 (influenza A virus H3N2 A/New York/55/04); test: ELISA on recombinant or purified HA
[13] = biological target: HA of H6N5 A/shearwater/Australia/1/72 (influenza A virus H6N5 A/shearwater/Australia/1/72); test: ELISA on recombinant or purified HA
[14] = biological target: HA of H3N2 A/Brisbane/10/07 (influenza A virus H3N2 A/Brisbane/10/07); test: ELISA on recombinant or purified HA
[15] = biological target: HA of H10N4 A/mink/Sweded/3900/84 (influenza A virus H10N4 A/mink/Sweded/3900/84); test: ELISA on recombinant or purified HA

Substance	neutralization of H7 pseudovirus, IC50 [1]	EC50 [2]	EC50 [3]	EC50 [4]	EC50 [5]	EC50 [6]	EC50 [7]	EC50 [8]	EC50 [9]	EC50 [10]	EC50 [11]	EC50 [12]	EC50 [13]	EC50 [14]	EC50 [15]
CR6261 (antibody)	> 50 µg/mL														
F10 (antibody)	> 50 µg/mL														
ctr (control antibody of Table 8)		> 20 µg/mL	> 20 µg/mL	> 20 µg/mL	> 20 µg/mL	> 20 µg/mL	> 20 µg/mL	> 20 µg/mL	> 20 µg/mL	> 20 µg/mL	> 20 µg/mL	> 20 µg/mL	> 20 µg/mL	> 20 µg/mL	> 20 µg/mL
